# Measurements from IntAct's records for PubMed 26344566.
# Biological target: PEX5, P50542-3
substance,measurement,value
"Serine-protein kinase ATM (Homo sapiens), Q13315 R3047Q",effect of a mutation on the interaction,decreasing interaction strength
